The target in one assay is T1, PD1-His (human, UniProt Q15116 25-170).
T1 construct: extracellular domain; In-house protein; also called extracellular domain protein of human PD-1 with a 6*His tag
The assay can be described thus: ELISA, plate coated with PD1-His.

Assay [1] concerns the target TGF-β1 (Sino Biological, Cat. No. 10804-HNAC) (UniProt P01137 279-390). The assay can be described thus: ELISA, plate coated with TGF-β1. (An ELISA detects its analyte on a solid surface through an enzyme-linked reagent.)
The next assay has as its target T2, CD137-ECD-Fc (human, UniProt Q07011 24-186).
T2 construct: extracellular domain; Bought; also called recombinant protein of the extracellular segment of human CD137 with Fc tags (Sino Biological 10041-H02H); not shown: Fc tag
The assay can be described thus: ELISA, plate coated with CD137-ECD-Fc.

The target in the next assay is T3, HER2-ECD-His (human, UniProt P04626 23-652).
T3 construct: extracellular domain; Bought; also called recombinant protein of the extracellular segment of human Her-2 with a polyhistidine tag (ACROBiosystems HE2-H5225); not shown: polyhistidine tag
The assay can be described thus: ELISA, plate coated with HER2-ECD-His.

Broadly, the EC50 is the concentration giving half of the maximal effect. Read a high EC50 as lower potency in that assay.

Values joined by “and” are separate entries in the source; they are usually repeats but may differ in a detail not shown here. Equal values may be shown once.

Chain of TGF-β1 (Sino Biological, Cat. No. 10804-HNAC) (P01137 279-390 limits assumed): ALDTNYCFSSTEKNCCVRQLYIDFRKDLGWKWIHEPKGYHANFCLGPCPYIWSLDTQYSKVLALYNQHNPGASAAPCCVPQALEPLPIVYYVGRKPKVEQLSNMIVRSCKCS
T2 sequence (Q07011 24-186): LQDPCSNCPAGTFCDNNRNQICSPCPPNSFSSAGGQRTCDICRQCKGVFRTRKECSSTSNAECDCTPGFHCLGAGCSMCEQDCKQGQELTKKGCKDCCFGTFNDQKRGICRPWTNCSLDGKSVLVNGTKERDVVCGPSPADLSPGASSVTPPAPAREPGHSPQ
T1 sequence (Q15116 other isoform, or with tags, fused parts or gaps): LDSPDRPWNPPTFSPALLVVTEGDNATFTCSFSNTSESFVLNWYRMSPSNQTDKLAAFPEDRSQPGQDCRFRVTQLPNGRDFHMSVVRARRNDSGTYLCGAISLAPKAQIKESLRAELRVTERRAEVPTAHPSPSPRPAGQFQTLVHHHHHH

B1: 20-Hu-HC+601-LC-D28G (antibody, human IgG4 S228P, kappa, V domains shown)
VH: EVQLVESGGGLVQPGGSLRLSCAASGFVFSNYDMSWVRQAPGKRLEWVATISGGGGYTYYSDSVKGRFTISRDNAKNSLYLQMNSLRAEDTAVYYCASPYGHYGFEYWGQGTLVTVSS
VL: DIQMTQSPSSLSASVGDRVTITCSASQGISNYLNWYQQKPGKAPKVLIYFTSSLHSGVPSRFSGSGSGTDFTLTISSLQPEDFATYYCQQYSTVPWTFGQGTKVEIKR
For B1, the midpoint of the response with PD1-His, the EC50, lay at 0.485 nM.

B2: 20-Hu-HC+601-LC-T93N (antibody, human IgG4 S228P, kappa, V domains shown)
VH: EVQLVESGGGLVQPGGSLRLSCAASGFVFSNYDMSWVRQAPGKRLEWVATISGGGGYTYYSDSVKGRFTISRDNAKNSLYLQMNSLRAEDTAVYYCASPYGHYGFEYWGQGTLVTVSS
VL: DIQMTQSPSSLSASVGDRVTITCSASQDISNYLNWYQQKPGKAPKVLIYFTSSLHSGVPSRFSGSGSGTDFTLTISSLQPEDFATYYCQQYSNVPWTFGQGTKVEIKR
B2 yielded an EC50 with PD1-His of 0.486 nM.

B3: 20-Hu-HC+601-LC-F50Y (antibody, human IgG4 S228P, kappa, V domains shown)
VH: EVQLVESGGGLVQPGGSLRLSCAASGFVFSNYDMSWVRQAPGKRLEWVATISGGGGYTYYSDSVKGRFTISRDNAKNSLYLQMNSLRAEDTAVYYCASPYGHYGFEYWGQGTLVTVSS
VL: DIQMTQSPSSLSASVGDRVTITCSASQDISNYLNWYQQKPGKAPKVLIYYTSSLHSGVPSRFSGSGSGTDFTLTISSLQPEDFATYYCQQYSTVPWTFGQGTKVEIKR
In the assay with PD1-His, B3 came in with an EC50 of 0.525 nM.

B4: 20-Hu-HC+601-LC-Y32F (antibody, human IgG4 S228P, kappa, V domains shown)
VH: EVQLVESGGGLVQPGGSLRLSCAASGFVFSNYDMSWVRQAPGKRLEWVATISGGGGYTYYSDSVKGRFTISRDNAKNSLYLQMNSLRAEDTAVYYCASPYGHYGFEYWGQGTLVTVSS
VL: DIQMTQSPSSLSASVGDRVTITCSASQDISNFLNWYQQKPGKAPKVLIYFTSSLHSGVPSRFSGSGSGTDFTLTISSLQPEDFATYYCQQYSTVPWTFGQGTKVEIKR
In turn, B4 had a 50% effective concentration (EC50) in the assay with PD1-His of 0.456 nM.

B5: 20-Hu-HC+601-LC-V46L (antibody, human IgG4 S228P, kappa, V domains shown)
VH: EVQLVESGGGLVQPGGSLRLSCAASGFVFSNYDMSWVRQAPGKRLEWVATISGGGGYTYYSDSVKGRFTISRDNAKNSLYLQMNSLRAEDTAVYYCASPYGHYGFEYWGQGTLVTVSS
VL: DIQMTQSPSSLSASVGDRVTITCSASQDISNYLNWYQQKPGKAPKLLIYFTSSLHSGVPSRFSGSGSGTDFTLTISSLQPEDFATYYCQQYSTVPWTFGQGTKVEIKR
In the assay with PD1-His, B5 showed an EC50 of 0.533 nM. The EC50 values of the last two molecules are within 1.5-fold of each other.

B6: 20-Hu-HC+601-LC-N34S (antibody, human IgG4 S228P, kappa, V domains shown)
VH: EVQLVESGGGLVQPGGSLRLSCAASGFVFSNYDMSWVRQAPGKRLEWVATISGGGGYTYYSDSVKGRFTISRDNAKNSLYLQMNSLRAEDTAVYYCASPYGHYGFEYWGQGTLVTVSS
VL: DIQMTQSPSSLSASVGDRVTITCSASQDISNYLSWYQQKPGKAPKVLIYFTSSLHSGVPSRFSGSGSGTDFTLTISSLQPEDFATYYCQQYSTVPWTFGQGTKVEIKR
As for B6, the EC50 with PD1-His is 0.175 nM.

B7: 20-Hu-HC+601-LC-F71Y (antibody, human IgG4 S228P, kappa, V domains shown)
VH: EVQLVESGGGLVQPGGSLRLSCAASGFVFSNYDMSWVRQAPGKRLEWVATISGGGGYTYYSDSVKGRFTISRDNAKNSLYLQMNSLRAEDTAVYYCASPYGHYGFEYWGQGTLVTVSS
VL: DIQMTQSPSSLSASVGDRVTITCSASQDISNYLNWYQQKPGKAPKVLIYFTSSLHSGVPSRFSGSGSGTDYTLTISSLQPEDFATYYCQQYSTVPWTFGQGTKVEIKR
B7 returned an EC50 in the assay with PD1-His of 1.03 nM.

B8: 14-Fab-1D11-IgG4 (bispecific antibody)
heavy: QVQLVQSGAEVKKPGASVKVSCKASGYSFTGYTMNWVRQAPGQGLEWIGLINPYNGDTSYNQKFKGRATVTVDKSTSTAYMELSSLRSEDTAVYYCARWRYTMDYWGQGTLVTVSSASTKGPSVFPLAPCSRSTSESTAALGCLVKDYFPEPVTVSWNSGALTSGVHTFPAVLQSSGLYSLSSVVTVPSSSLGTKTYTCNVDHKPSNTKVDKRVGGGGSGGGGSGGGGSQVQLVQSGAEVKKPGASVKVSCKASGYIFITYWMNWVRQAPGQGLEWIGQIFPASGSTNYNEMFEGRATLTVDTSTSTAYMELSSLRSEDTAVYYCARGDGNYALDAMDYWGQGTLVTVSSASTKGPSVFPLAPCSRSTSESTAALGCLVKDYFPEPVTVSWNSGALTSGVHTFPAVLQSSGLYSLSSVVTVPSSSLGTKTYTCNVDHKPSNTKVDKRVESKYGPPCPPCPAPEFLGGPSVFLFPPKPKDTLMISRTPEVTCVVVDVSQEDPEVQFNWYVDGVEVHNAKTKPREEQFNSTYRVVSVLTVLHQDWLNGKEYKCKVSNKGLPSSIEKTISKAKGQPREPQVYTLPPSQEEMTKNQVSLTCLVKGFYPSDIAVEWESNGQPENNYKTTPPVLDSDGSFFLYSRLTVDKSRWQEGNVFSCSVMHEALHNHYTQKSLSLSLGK
light: DIVLTQSPASLAVSPGQRATITCRASESVDNYGNSFMNWYQQKPGQPPKPLIYFASNLESGVPARFSGSGSRTDFTLTINPVEADDTANYYCQQNNEAPPTFGQGTKVEIKRTVAAPSVFIFPPSDEQLKSGTASVVCLLNNFYPREAKVQWKVDNALQSGNSQESVTEQDSKDSTYSLSSTLTLSKADYEKHKVYACEVTHQGLSSPVTKSFNRGEC
Regarding B8, the half-maximal effective concentration (EC50) in the assay with PD1-His was found to be 0.437 nM; in assay [1], 0.699 nM.

B9: 1D11-Fab-14-IgG4 (bispecific antibody)
heavy: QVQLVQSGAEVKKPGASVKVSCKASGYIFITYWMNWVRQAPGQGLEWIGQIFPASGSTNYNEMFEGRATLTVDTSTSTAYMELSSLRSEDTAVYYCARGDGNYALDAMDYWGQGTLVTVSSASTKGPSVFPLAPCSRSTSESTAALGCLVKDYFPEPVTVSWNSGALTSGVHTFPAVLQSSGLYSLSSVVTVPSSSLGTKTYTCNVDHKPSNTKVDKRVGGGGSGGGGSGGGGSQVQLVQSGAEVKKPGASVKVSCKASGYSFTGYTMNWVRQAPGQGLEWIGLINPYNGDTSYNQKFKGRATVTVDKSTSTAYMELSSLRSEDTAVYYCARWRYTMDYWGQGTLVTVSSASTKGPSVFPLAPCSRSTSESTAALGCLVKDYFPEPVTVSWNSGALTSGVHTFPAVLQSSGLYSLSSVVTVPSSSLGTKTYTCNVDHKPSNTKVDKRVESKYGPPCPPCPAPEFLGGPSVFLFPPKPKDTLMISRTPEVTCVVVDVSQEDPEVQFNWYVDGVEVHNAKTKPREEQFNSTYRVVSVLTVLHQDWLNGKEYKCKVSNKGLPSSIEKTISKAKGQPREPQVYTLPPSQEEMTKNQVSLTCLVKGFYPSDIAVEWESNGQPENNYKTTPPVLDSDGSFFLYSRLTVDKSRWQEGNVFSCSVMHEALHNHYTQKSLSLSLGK
light: DIVLTQSPASLAVSPGQRATITCRASESVDNYGNSFMNWYQQKPGQPPKPLIYFASNLESGVPARFSGSGSRTDFTLTINPVEADDTANYYCQQNNEAPPTFGQGTKVEIKRTVAAPSVFIFPPSDEQLKSGTASVVCLLNNFYPREAKVQWKVDNALQSGNSQESVTEQDSKDSTYSLSSTLTLSKADYEKHKVYACEVTHQGLSSPVTKSFNRGEC
Take B9: the 50% effective concentration (EC50) with PD1-His is 2 nM; in assay [1], 0.363 nM.

B10: 127-Fab-14-IgG4 (bispecific antibody)
heavy: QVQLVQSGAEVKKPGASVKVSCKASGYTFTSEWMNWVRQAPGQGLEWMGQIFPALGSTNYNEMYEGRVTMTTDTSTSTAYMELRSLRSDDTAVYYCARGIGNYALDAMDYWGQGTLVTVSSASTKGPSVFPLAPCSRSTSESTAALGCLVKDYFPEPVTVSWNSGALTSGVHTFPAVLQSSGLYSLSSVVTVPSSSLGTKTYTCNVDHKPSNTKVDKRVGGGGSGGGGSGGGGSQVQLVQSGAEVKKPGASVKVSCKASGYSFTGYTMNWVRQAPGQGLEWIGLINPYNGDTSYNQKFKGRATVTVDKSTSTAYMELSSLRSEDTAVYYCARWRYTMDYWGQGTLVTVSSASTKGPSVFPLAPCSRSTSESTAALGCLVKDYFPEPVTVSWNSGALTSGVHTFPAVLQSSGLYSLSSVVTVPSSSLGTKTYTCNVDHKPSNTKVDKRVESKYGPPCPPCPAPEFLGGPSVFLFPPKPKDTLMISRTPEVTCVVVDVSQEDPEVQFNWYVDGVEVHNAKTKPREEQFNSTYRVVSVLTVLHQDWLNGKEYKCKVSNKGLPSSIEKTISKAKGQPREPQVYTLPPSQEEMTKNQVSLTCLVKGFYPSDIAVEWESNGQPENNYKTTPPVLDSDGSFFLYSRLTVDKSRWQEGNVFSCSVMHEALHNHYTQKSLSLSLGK
light: DIVLTQSPASLAVSPGQRATITCRASESVDNYGNSFMNWYQQKPGQPPKPLIYFASNLESGVPARFSGSGSRTDFTLTINPVEADDTANYYCQQNNEAPPTFGQGTKVEIKRTVAAPSVFIFPPSDEQLKSGTASVVCLLNNFYPREAKVQWKVDNALQSGNSQESVTEQDSKDSTYSLSSTLTLSKADYEKHKVYACEVTHQGLSSPVTKSFNRGEC
In the case of B10, the EC50 amounted to 3.96 nM with PD1-His and 0.108 nM in assay [1].

B11: 19H6-Hu-HC+94-Hu-LC (antibody, human IgG1, kappa, V domains shown)
VH: QVQLVQSGAEVKKPGASVKVSCKGSGYTFTDYAIHWVRQAPGQSLEWIGVFSIYYENINYNQKFKGRATMTVDKSTSTAYMELRSLRSDDTAVYYCARRDGGTINYWGQGTLVTVSS
VL: DVVMTQSPLSLPVTLGQPASISCRSSQSLLHSNGNTYLHWYQQRPGQSPRLLFYKVSNRFSGVPDRFSGSGSGTDFTLKISRVEAEDVGVYFCSQSTHVPWTFGQGTKVEIKR
notes: Hybrid antibody
As for B11, the binding result in the assay with CD137-ECD-Fc is recorded as “no binding”. A half-maximal response with HER2-ECD-His (EC50) required 0.139 nM.

B12: 94-Hu (antibody, human IgG1, kappa, V domains shown)
VH: QVQLQESGPGLVKPSETLSLTCTVSGFSLSSYDISWIRQPPGKGLEWLGVIWTGGGTNYNSAFMSRLTISKDNSKSQVSLKLSSVTAADTAVYYCVRMDYWGQGTLVTVSS
VL: DVVMTQSPLSLPVTLGQPASISCRSSQSLLHSNGNTYLHWYQQRPGQSPRLLFYKVSNRFSGVPDRFSGSGSGTDFTLKISRVEAEDVGVYFCSQSTHVPWTFGQGTKVEIKR
notes: Humanized anti-human CD137, IgG1, kappa; also called 94-Hu-HC+94-Hu-LC
In the assay with CD137-ECD-Fc, B12 yielded an EC50 of 0.391 nM. Besides, in the assay with HER2-ECD-His, the binding result is reported as “no binding”.

B13: 94-Hu-HC+19H6-Hu-LC (antibody, human IgG1, kappa, V domains shown)
VH: QVQLQESGPGLVKPSETLSLTCTVSGFSLSSYDISWIRQPPGKGLEWLGVIWTGGGTNYNSAFMSRLTISKDNSKSQVSLKLSSVTAADTAVYYCVRMDYWGQGTLVTVSS
VL: DVVMTQSPLSLPVTLGQPASISCRSSQSLVHSNGNTYLHWYQQRPGQSPRLLIYKVSNRFSGVPDRFSGSGSGTDFTLKISRVEAEDVGVYFCSQSTHIPWTFGQGTKVEIKR
notes: Hybrid antibody
The molecule B13 had a concentration giving a half-maximal response (EC50) with CD137-ECD-Fc of 0.634 nM. In the assay with HER2-ECD-His, the binding result is given as “no binding”.

B14: 14-Hu-HC+1D11-Hu-LC (antibody, human IgG4 S228P, kappa, V domains shown)
VH: QVQLVQSGAEVKKPGASVKVSCKASGYSFTGYTMNWVRQAPGQGLEWIGLINPYNGDTSYNQKFKGRATVTVDKSTSTAYMELSSLRSEDTAVYYCARWRYTMDYWGQGTLVTVSS
VL: DIVLTQSPASLAVSPGQRATITCRASESVDSYGNSFMHWYQQKPGQPPKLLIYLASNLESGVPARFSGSGSGTDFTLTINPVEADDTANYYCQQNNEDPLTFGGGTKVELKR
notes: Hybrid antibody
As to B14, the binding result (in the assay with PD1-His; in assay [1]) was “no binding” throughout.

B15: 1D11-Hu (antibody, human IgG4 S228P, kappa, V domains shown)
VH: QVQLVQSGAEVKKPGASVKVSCKASGYIFITYWMNWVRQAPGQGLEWIGQIFPASGSTNYNEMFEGRATLTVDTSTSTAYMELSSLRSEDTAVYYCARGDGNYALDAMDYWGQGTLVTVSS
VL: DIVLTQSPASLAVSPGQRATITCRASESVDSYGNSFMHWYQQKPGQPPKLLIYLASNLESGVPARFSGSGSGTDFTLTINPVEADDTANYYCQQNNEDPLTFGGGTKVELKR
notes: Humanized anti-TGF-β, IgG4 (S228P), kappa; also called 1D11-Hu-HC+1D11-Hu-LC
Take B15: the binding result with PD1-His is “no binding”. Further, the half-maximal effective concentration (EC50) in assay [1] was 0.0662 nM and 0.134 nM.

B16: 1D11-Hu-HC+14-Hu-LC (antibody, human IgG4 S228P, kappa, V domains shown)
VH: QVQLVQSGAEVKKPGASVKVSCKASGYIFITYWMNWVRQAPGQGLEWIGQIFPASGSTNYNEMFEGRATLTVDTSTSTAYMELSSLRSEDTAVYYCARGDGNYALDAMDYWGQGTLVTVSS
VL: DIVLTQSPASLAVSPGQRATITCRASESVDNYGNSFMNWYQQKPGQPPKPLIYFASNLESGVPARFSGSGSRTDFTLTINPVEADDTANYYCQQNNEAPPTFGQGTKVEIKR
notes: Hybrid antibody
With B16, in the assay with PD1-His, the binding result is given as “no binding”. In addition, the EC50 in assay [1] is 0.525 nM and 1.27 nM.

B17: mAb127 (antibody, human IgG4 S228P, kappa, V domains shown)
VH: QVQLVQSGAEVKKPGASVKVSCKASGYTFTSEWMNWVRQAPGQGLEWMGQIFPALGSTNYNEMYEGRVTMTTDTSTSTAYMELRSLRSDDTAVYYCARGIGNYALDAMDYWGQGTLVTVSS
VL: DIQMTQSPSSLSASVGDRVTITCRASESVDFYGNSFMHWYQQKPGKAPKLLIYLASNLESGVPSRFSGSGSGTDFTLTISSLQPEDFATYYCQQNIEDPLTFGGGTKVEIKR
notes: Anti-TGF-β, IgG4 (S228P), kappa; also called mAb127-HC+mAb127-LC
For the molecule B17, the EC50 in assay [1] was 0.0414 nM. This counts as picomolar.

B18: 94-Fab-19H6-IgG1-LALA (bispecific antibody)
heavy: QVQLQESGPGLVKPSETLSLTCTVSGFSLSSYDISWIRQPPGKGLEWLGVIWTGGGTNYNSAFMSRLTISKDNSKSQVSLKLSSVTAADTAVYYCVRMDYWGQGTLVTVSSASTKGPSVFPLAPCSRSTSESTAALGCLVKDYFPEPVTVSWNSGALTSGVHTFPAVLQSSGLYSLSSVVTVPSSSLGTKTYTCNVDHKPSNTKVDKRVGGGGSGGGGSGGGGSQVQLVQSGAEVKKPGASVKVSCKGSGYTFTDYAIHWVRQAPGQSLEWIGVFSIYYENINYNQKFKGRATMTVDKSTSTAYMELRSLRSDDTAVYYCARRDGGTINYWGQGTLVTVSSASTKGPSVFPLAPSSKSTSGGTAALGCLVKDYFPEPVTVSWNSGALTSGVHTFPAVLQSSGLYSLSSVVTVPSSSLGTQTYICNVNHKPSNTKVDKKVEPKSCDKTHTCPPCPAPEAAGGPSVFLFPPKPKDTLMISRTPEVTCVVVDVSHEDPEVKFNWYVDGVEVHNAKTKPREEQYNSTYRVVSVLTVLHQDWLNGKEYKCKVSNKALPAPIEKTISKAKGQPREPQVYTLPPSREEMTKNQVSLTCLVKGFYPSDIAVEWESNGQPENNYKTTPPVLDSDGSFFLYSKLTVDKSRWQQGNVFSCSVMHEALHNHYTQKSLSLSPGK
light: DVVMTQSPLSLPVTLGQPASISCRSSQSLVHSNGNTYLHWYQQRPGQSPRLLIYKVSNRFSGVPDRFSGSGSGTDFTLKISRVEAEDVGVYFCSQSTHIPWTFGQGTKVEIKRTVAAPSVFIFPPSDEQLKSGTASVVCLLNNFYPREAKVQWKVDNALQSGNSQESVTEQDSKDSTYSLSSTLTLSKADYEKHKVYACEVTHQGLSSPVTKSFNRGEC
Consider B18, for which the EC50 worked out at 0.241 nM with CD137-ECD-Fc and 0.158 nM with HER2-ECD-His.

B19: 19H6-Fab-94-IgG1-LALA (bispecific antibody)
heavy: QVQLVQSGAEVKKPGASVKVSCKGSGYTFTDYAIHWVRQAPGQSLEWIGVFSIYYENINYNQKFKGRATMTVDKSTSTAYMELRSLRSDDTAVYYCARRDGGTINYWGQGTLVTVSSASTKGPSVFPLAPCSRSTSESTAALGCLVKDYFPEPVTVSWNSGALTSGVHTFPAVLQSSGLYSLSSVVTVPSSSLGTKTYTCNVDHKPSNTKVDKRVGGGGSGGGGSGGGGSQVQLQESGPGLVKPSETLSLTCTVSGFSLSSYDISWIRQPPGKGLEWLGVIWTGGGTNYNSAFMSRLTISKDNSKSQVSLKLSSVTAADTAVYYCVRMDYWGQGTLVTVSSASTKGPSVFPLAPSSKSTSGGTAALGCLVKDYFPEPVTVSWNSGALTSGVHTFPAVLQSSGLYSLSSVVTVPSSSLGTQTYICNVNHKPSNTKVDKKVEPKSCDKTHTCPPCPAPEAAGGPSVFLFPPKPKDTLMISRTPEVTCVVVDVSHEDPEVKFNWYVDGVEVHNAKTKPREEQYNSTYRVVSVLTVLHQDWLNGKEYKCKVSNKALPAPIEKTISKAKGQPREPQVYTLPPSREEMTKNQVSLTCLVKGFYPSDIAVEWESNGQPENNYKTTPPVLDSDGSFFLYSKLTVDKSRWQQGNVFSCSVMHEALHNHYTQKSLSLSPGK
light: DVVMTQSPLSLPVTLGQPASISCRSSQSLVHSNGNTYLHWYQQRPGQSPRLLIYKVSNRFSGVPDRFSGSGSGTDFTLKISRVEAEDVGVYFCSQSTHIPWTFGQGTKVEIKRTVAAPSVFIFPPSDEQLKSGTASVVCLLNNFYPREAKVQWKVDNALQSGNSQESVTEQDSKDSTYSLSSTLTLSKADYEKHKVYACEVTHQGLSSPVTKSFNRGEC
B19: the EC50 was 27.6 nM in the assay with CD137-ECD-Fc and 0.12 nM in the assay with HER2-ECD-His.

The values are drawn from US20220259330A1 (SUNSHINE GUOJIAN PHARMACEUTICAL SHANGHAI, published 2022).
